Source: the NTF2 design screens of Basanta et al. (2020)

assay: protease stability score; higher = more stable; yeast display proteolysis, trypsin and chymotrypsin;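 also: log10 excess protease needed over predicted unfolded state with 0 meaning unfolded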

Sequence | protease stability score
DEDKTAEQVAETIQKIWEKGDPTKMEKLFDPNASINVGEKTVKGREKIFTEAKKLMKEADHVRVTVQHVEARGDHVIVRFTFTLHVNGKNRKHEVEINAEDKNGHLRARDIKMR | 0.351
DEDKTMRELIRRLDKNLKEGDPSKAREQADKDARANIGEKRVTGRKRLDEEVKTLLDSYDHIRVHLKEVRVENGSAVARVDYHYDQNGQEKSKEVILHARFQGDRLTLEQMTMP | 0.043
DEDKVAHDMMKEIQSIFERGDRDTWRRMFDPNAEMHVGDKRIHGREHFSRWAQRSVERVDHHEMHVRSVSVDNGTITVSAVEVENVNGHEDKRRFVVRANLEGDKVQWKRRSEQ | 0.096
DEDKVERLKHMWKVVEEGDEDKLREQFDKDASVTVGDKVLTGRENLARHWKRIRDELRFSMTMEKVEVHNGVVDIRVTATEDNNGRPQHKVADVRVDMHNGRIKVLEVDETK | 0.154
DEDKVKKIAEELWKAISNGDEERMKKLMRDDVRAQVGDTEVHGREHVVHQLATFAKQVDHLTMETYDIRGNHVTFRFQARVNGKRVQIDMVIHVSNGRIKELRIDPKQVKELES | 1.22
DEDKVNEFMRHFLDVFETGNEKDVKKMADPNAKIEYGDKTLHGRENLRKVIADWRKRVDRIQIEHVDLQGNKARIIVVLNINGRNIRVDIDVNVHNGEIKSIRFEFTDPKTLQRATS | 0.649
DEDKVRELVKKAFKAIVNGNEEEVRKLLDPNVKYKYVDKEFEGEEVAKFLVEMVRKLGAKVETEKTHIEGNTARATFVYKLGDQKVQTHAEVKYEGDKVKEVRVEMTDEDKKQLHRG | 1.17
DEDKVRKFQEYIEAYRRGDEQKLLKLMDPNVHVEIGDRRYHGHEDMEKILHKEIREIRVDVKIQSIEVRNGHITAHLVMSVNVNGHPVQMQFTVVIEMTNGKIKSIKYRVSEEQKRRFDS | 0.49
DEDLAKRFVTFIKIMLNGDPDKLEKMMDENATVNVGDRRLTGHETIAKDLHRLINESRVHIQLRDFDVRPGRVELEFEAERKHDGRPHTSRFIVIVKDHNGKMVKIVVKQTK | 1.02
DEDLARRLAEEMVKKATHGDEDTVRELIDPNVKFRYGDKDVEGRENFATELAEDMRTADHVHLKQVTIRGDTVQIDMRMVFDGSEDRHDLRLRAHNGKVQEVTIDQG | -0.112
DEDLDKQAQEFIHAMQEGDPQRLSEQMDPNARFHVGEKNIHGKEEVMRDFQRTVDQAEIEFKEYSVRAEPGRVRIKLHYVDNNDGRPHSKVQDMVIVFHNGKLVVIDVNDSQ | 0.236
DEDLERIIRRFMTALETGDPEELKKQMDENVRVQVGDKVLNGREEAAKHWTKVRDDLRIKIDTFHVENNGNRIDLSVDAEAEHNGRPQRYTLHMKAQVHNGKIKNATFTREQ | 0.868
DEDLERKAKKYIDALDTGDPDEVSKLVDPNVKFMYGDKTFHGRDQLRRIIQRISDQQRVHVDIKTFSAKGDKVEIKARIEVETDGRPRQFHAIYRMRVHNGKITHISVEMRQ | 1.23
DEDLERKVKELMEVLKSGDESKWMEMVDPNARVQVGDTEIHGRENRREDLKRHKEDSRLDLKSYNVRVHNGQVEVHMSYTYEHNGQPRTSQATARFQLHNGRITEVNVNTTK | -0.309
DEDLFRRLSELMHAVTNGDEEELVKQADKDARIQYGDKVFHGMDEAARELVRQQKEIRQSWEIKSWDHQGDKVRVTIKNSQDHDGRPHSNRIDVEVKQRNGKVTTARFQTHP | 0.148
DEDLIELAKELMHALQEGDEKRLQDLIDPNASAQIGDHRVHGMDEVLSTLVEHQHNQRVRIDRMEADVHNGTARVRIDQQFEHNGNPDKKVLVYEMTANNGKLKHYKLDEDK | 0.268
DEDLKHLFHTFQKVLEEGNREKLRRLADENVTVSYGDKRVHGMESFARQVKEERDEQRVVINIRKVDVSGDQVRVVADVEREHNGKPDRKNLVMEANAEGDKFREVKYTEHG | 0.151
DEDLKKRFKRMLRNLQNNNEENAHELMDPNARWRYGDKVLHGHEQLIEEWKRIHDRMRVEYKSVEVTASGDKVVVEIVFTRHKNGSPDSDNTRWKAVYNNGKLKDMMVTEDG | 0.637
DEDLKQQFDELVEIKKNGDEDRLVEQADENVKAQVGDKDVHGMKEIAHNIRHTVERIRVEIKSMEVDAQGNRVHVENDFVENNNGKPHRKVVDMKFIFHNGTLKSYTERDDK | -0.608
DEDLLKQADRWVKNLTRGNFKDLQKLFPPDATVQYGDNHIHGMEKISHEWKKEQEEMRIRVDRVQNEHQGEKAVVDLHYKVTHNGKPEENVVILFIEKHNGHMIFMKIQKTG | 0.739
DEDLLKQLHTYLRAHETGDRSRLRKLMDPNAEVRIGNHELHGREEILTQQVEEAHKITQYFEIDSVEVRPNSIKVKAHVSMNVNGQPFRTEVEYDVRIRNGRIQEITYRLPEEFLREVNR | -0.229
DEDLLRKIKQLLRAFEDNNEDQLRKNADPNARFVYGDKHIHGMEEAMRHQVTRYKEIRIERQIDTMSVTNGRANVQFTVVENHNGRPDTFHVQVDIKAHNGRVHTIEYEIHK | 0.387
DEDLLRRAEQFIKAELRNNPDRAKELADPNVKFNIGDKEIHGMDDFRRYLHKKVKNMKWRAKVTHMKVQGNHAKLHVKVTLDINGRPFDVTRDILIVFHNGKIRDVNVRVDPEDKKRQKE | 1.39
DEDLMERLKTILDAQSNGNPDELRRMFDPNAKIDIGDKEYHGMENFASNQHKRVKHIEQKYQFKSISAEGDKLDVRLRAQQVVNGTPRKYEYNLTARMSNGKVKSMEVQIPEEVLKRLEK | -0.219
DEDLMRKFVERVKTGDPKDLVDQLDENAHQVVGETRVHGRSQFEKLAKKLEEQVDHIKVRSVKQENGRVDMDVVVNVNGQNNRYVLRVDVHNGKIKHMEVEFTDEEDEKAYRKALG | 0.095

Sequence | protease stability score
DEDLMTQIVKRYIDAWREGDRDELMKLADENVHIQVGDQTYHGQEQWRELVKKHKDNADHMDVKSWNIRGEKVHVHYWARFNGVEIEDTVEIQYENGRIIDIQFDPDQQRKEDK | 0.676
DEDLNDMAVRMAEILNEGNEDEYNKQIDPHARFVIGDKEYSGHEHFKKEIQRQNKEMRVTVNLHRWDATNGEMHLVIHYSWNVNGRPTTIHVHFRITARGDKFKQIDVHMDPDELRRVDS | 0.765
DEDLQEFAERLLQVNRTGDEDQFRRNVDPNAKMVVGDKEYHGRDELARFFRHLREHARFELNVKSVSVEGDTVEIHFEARVDINGKPLTYEASMSMRVEGDRVKRITFRMDPDQRRKAHS | 1.11
DEDLQKQAERFLHAVNTGNEEQIHRLVDKDARMQYGDRRVHGRERIATWYRQMKEEIRQDIEVRTVRVRNGRVEVDARVERHVNGRPIDNKFHMSIQIENGKVKSITAHLDPNVLQEIKR | 1.17
DEDLRRQAETMVDNINTNNERELEKLFDPNVHVVVGDRRINGTEHLRDYWRRIRDHMRLEVNLRRISVHNGKISAHVDVVREHNGKPDEDTFRMSAVVRNGKFHKMRVEKDG | 1.37
DEDLSRNFHQFIEALKQNDTDRMKELIDPNARMRYGDKQLHGRENILNYWKKLNDQARVDLDLKSVRNDENHIRYNYKMRVHVNGRPVEDTATAEIRATNGRIVDIYIDFDPEKLRQIES | 2.34
DEDLTKRFRQLIKAQETGDPDKIKNQVDKDVHAHVGDKTVSGREKLATQIHRDVQHSHFKVHVDNVRNHGNKVEVDARMVMNINGRPVTFTVNMDFTFHDGTIHRIKMSISEEDKKKTDS | 0.793
DEDLVERVQDLLEAERENDEDTVSKMVDPNVKFSYGNRELHGREQWTKHVAEKQKQMRIQIDIDSYSVQGNHATFTAKITVHINGKPMSDTVTFQIVFSNGKVEEVRMRIDPRFQREVES | 0.016
DEDMSRKAKKFWKAETDGNPQKLKTLIDPNARAHVGDQDLHGRRKIVHWLKHFRDTMRQHWTRYSFDAHGNKVDNRFVVVLQTNGKPERRRNKLTLVFKNGRLVSMRDETKG | 0.128
DEDMYEQYESILHNERTGNEDEWVENIDPNARIRVGDKEVHGMEDNAREKRRHQEEQRVHFDIKRYSIHNGELDVTAKMRRDVNGQPAQDDVKVRIVVENGRIKEQDQDFDEDDDRRQKK | -0.037
DEDNAERVHTALDILERGNPEEVKKMFRDDVRATIGDTVIHGMTNFAHYMQRLMDHARVNITIRSWSVKNGRVEIDAEIHANHNGQPYHDRFKIKAEVTNGRFKYLQYDIDPDFLRDMTK | 1.25
DEDNEKELQREIVRVLKHNDWERFTQLIDEDVRLEYGDQRYHGREQVSKHFTDLAQEVDSVEVTSVKAHNGKINITAILNHNGTNHRYNIRFEFRNGRLKVVRYDHT | 1.85
DEDNHRKAKKLIDAENTGDPTQVRKLADPNVHVEYGDEHVHGRDEIANELSKKAKEIRFRVDRLSFSVHNGTFSATQRMKENDNGRPEEFRVERSMELHNGKFVSIVQKKKS | -0.071
DEDNLRDAMEVYHQNDPDKAVKMADEDVKVVVGDRKWNGREDFEEAMRTFNQRVDHIEYKSMDVSNGQISIDVVINVDGQNARFILNIEIHNGKIKSLRYQWRNENVRQVLTEIFQ | 0.795
DEDNMHRLKEFLDNLNQGDEERLVELADEDVKLVYGEKRYHGREELTKTLETQRDQMRVDYKVKSMSVSNGRVHADIEASNTKNGKPKRFKVRVHAEFHNGRLQVYNQQEDK | 0.42
DEDNQREANRAAKTGDFKRMAEKADPNVSVTVGDKEVKGREEVHKFVQRFDDQVDDLDIKSFRVEGDKVHVQATAVFNGKKIEFSFSARIHNGKLTKMTVKVRDPRQQKKLQKQWE | 0.004
DEDNQTQTAERVVEIMRTGDEHKMRNLADENVKIQIGDKKYRGRDEASKQAKELRDRVDRLRVVRFDVHGNKVRIVMQFKYNGVTVNFKFTVEIHNGRVKSMEMRYTNPEDLKRARS | 0.182
DEDNTDRARKFFEALRTNDPDQVSSLLDPNARVHIGDRVINGREEVRTHIKHLTDKIRFQIQKVTVHVSNGRISAHVTFEVEVNGRPDRFNMEVVARVENGKIKVMQFKISEDQMQKLRN | 1.39
DEDNVKRAEHFAEALITGNPEEIQKQVDPNAKIKVGEQEVHGMESYAKEVHEENKEMHIEIRHISATAQGDRARLEMRYVINSNGRPQHVVQEYTIKLHNGRAQEIEVKDDG | 0.282
DEDQAKEQVDNARKVINQGNFSEAVKTADPNVKAAYGEKRLEGRQVLHTYQEVFQRRVDHVHVRRVDLKGEKATIKAELTINGRTTTMRMVVEVSNGRLKNFYVKYK | 0.145
DEDQAKTIEELWRTNDFDTLATQADKDVHNHVGDKKIHGRTQHTQAQERIRRAVDHFDVKRVNIQGNKVDIDVVMEVNGKNVHMTVVITVHNGKIKHMSMRVRDEEVKKLFEEMEQ | 0.527
DEDQAQKLIDKMTEAMFKNDEETIRKVGKEDVEVKNADEEYKGVDTIVDLARKYKEQGIEFHLEQVHKEGDQVKFTAVVHVADRTVKVEVKYKADNGHVERTEVEWSQEVKKAFQQH | 0.97
DEDQARLAIRFMEAWLEGNEDELKNQADPNAHFQVGDKHVTGMDEAAKELKTQLTEIRWDYKSVRIDTEEGRANLDMTVRMEVNGKPVEHSQKIEVERHNGQLSVIDQQFDNDTWDEVKS | -0.393
DEDQATEVAELVKSNDWENLRRNIDPNARMHIGDRTLHGREEIAEVFRRIVEQADHQRLHHLEVEGDTIVIRMTVNINGKEVDFRMKIQFHNGKIKEVRVDFTDPKERKVFDKAAR | 1.28
DEDQEDLIRRLIKALDTGDPEQARKNADKDARFNYGDQEIHGMQTFVDDLEKRKRQMHVRITRIDVRVHNGQAKQSVNEVTNHNGRPQSRVQDRRIQITNGRVKKMENDDDG | -0.316
